For 2 substances, inhibition of HDMEC migration (Transwell, TSP-2 conditioned medium), inhibition of HDMEC migration in the presence of 10 ug/ml anti-CD36 antibody (clone FA6-152) and inhibition of HDMEC migration (Transwell, 10 ug/ml TSP-1) results are on record in patent US20050171016A1.

The target in this test is CD36 receptor on human dermal microvascular endothelial cells (HDMEC) (human) (UniProt P16671). Kind of test: cell-based or functional assay.
Sequence of UniProt P16671 (P16671 2-472): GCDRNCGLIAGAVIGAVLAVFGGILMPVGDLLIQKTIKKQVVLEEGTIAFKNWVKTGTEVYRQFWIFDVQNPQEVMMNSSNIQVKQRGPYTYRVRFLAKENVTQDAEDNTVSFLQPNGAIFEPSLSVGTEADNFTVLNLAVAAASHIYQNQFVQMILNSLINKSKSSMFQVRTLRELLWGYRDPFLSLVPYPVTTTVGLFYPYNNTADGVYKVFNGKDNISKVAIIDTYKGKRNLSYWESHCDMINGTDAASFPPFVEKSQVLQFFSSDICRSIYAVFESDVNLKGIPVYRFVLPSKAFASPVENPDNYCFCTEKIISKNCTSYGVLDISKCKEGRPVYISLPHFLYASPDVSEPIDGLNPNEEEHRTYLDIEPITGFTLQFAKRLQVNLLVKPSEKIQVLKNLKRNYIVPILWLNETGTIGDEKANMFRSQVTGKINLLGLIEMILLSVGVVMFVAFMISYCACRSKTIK

Consider “mouse thrombospondin-2 (TSP-2) (from UniProt Q03350 19-1172)”, for which the inhibition of HDMEC migration (Transwell, TSP-2 conditioned medium) was determined as 54.2% and the inhibition of HDMEC migration in the presence of 10 ug/ml anti-CD36 antibody (clone FA6-152) amounted to 36.1%.

Consider “human thrombospondin-1 (TSP-1) (from UniProt P07996 19-1170)”, for which the inhibition of HDMEC migration (Transwell, 10 ug/ml TSP-1) was determined as 54% and the inhibition of HDMEC migration in the presence of 10 ug/ml anti-CD36 antibody (clone FA6-152) came to 20.8%.
